“Also recorded” adds a separate entry of the source. Where two headings read alike, the source gives them in different places.

For series [1], the target named is T1, mesotrypsin (Homo sapiens, UniProt P35030).
T1 sequence (P35030 81-304 limits assumed): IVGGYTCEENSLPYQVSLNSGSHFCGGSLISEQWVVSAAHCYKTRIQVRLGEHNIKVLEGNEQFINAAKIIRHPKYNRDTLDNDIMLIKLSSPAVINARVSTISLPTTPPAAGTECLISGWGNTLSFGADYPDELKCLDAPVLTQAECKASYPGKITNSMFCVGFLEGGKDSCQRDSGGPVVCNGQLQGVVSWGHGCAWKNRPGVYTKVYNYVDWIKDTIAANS
The series can be described thus: Mesotrypsin inhibition, cleavage of Z-GPR-pNA. It counts as biochemical. Set-up: made in house.

In series [2] the target is T1, mesotrypsin. Put plainly: Hydrolysis of APPI variants by mesotrypsin, HPLC time course. Set-up: made in house. It counts as biochemical.
Series [3] deals with T1, mesotrypsin. The following applies: literature (Knecht et al. 2007; Radisky et al. 2003); cited from earlier work.
In series [4] the target is T2, hK6 (Homo sapiens, UniProt Q92876). Put plainly: YSD binding of 50 nM hK6 in presence of active-site small molecule. The procedure: Next, different concentrations of the polypeptides having SEQ ID Nos: 8, 13, and 14 were tested for their ability to bind 50 nM hK6 in the presence of a small molecule which target and home the serine residue in the active pocket of hK6.

The subject of series [5] is AGS cells. Put plainly: XTT proliferation assay. In kind it is cell-based. The following applies: 100 nM, 1 μM, 10 μM, 48 hours. Here is the method:
(§1) The effect of an APPI variant (SEQ ID NO: 13) on proliferation of gastric cancer cells was evaluated by XTT assay. AGS, HCT-116 and SW-480 cells were plated into 96-well plates in 9600 cells/well in duplicate, and allowed to adhere for 4 hours. Each well was supplemented with 100 nM, 1 μM, or 10 μM […] (SEQ ID NO: 13) or a vehicle (50 mM Tris-HCl, 100 mM NaCl, Ph 7.3), and cells were incubated for 48 hours. Proliferation was measured by XTT following the manufacturer instructions (Biological Industries, Ill.).

Series [6] concerns SW-480 cells. The series can be described thus: XTT proliferation assay. It counts as cell-based. The following applies: 100 nM, 1 μM, 10 μM, 48 hours. The procedure: as §1
The test system of series [7] is HCT-116 cells. The series can be described thus: XTT proliferation assay. In kind it is cell-based. The following applies: 100 nM, 1 μM, 10 μM, 48 hours. Here is the method:
as §1

In series [8] the test system is AGS gastric cancer cells. Put plainly: Matrigel ThinCerts invasion assay. In kind it is cell-based. Here is the method:
The effects of […] (SEQ ID NO: 13) on the invasive behavior of AGS gastric cancer cells was examined. For invasion assays AGS cells were plated in the top chamber of a Matrigel coated […] (Greiner Bio-One, Germany), with an 8 μm pored membrane in 160 μl serum-free Ham's F-12 medium, in triplicate. 1 uM-10 uM of APPI (SEQ ID NO: 13) or a vehicle (50 mM Tris-HCl, 100 mM NaCl, Ph 7.3) in 40 μl were added to each insert. Next, the inserts were placed into the bottom chamber wells of a 24-well plate containing Ham's F-12 with 10% FBS as a chemo-attractant. After 48 hours of incubation, cells remaining on the inserts' top layers were removed by cotton swab scrubbing; Cells on the lower surface of the membrane were fixed in 100%/methanol and stained with Romanowski stain solutions. The cell numbers in 10 random fields (×20) were counted for each chamber and the average value was calculated.

Series [9] concerns the target T2, hK6. Put plainly: Surface plasmon resonance, APPI on nickel chip, hK6 analyte. It counts as binding. The following applies: SPR.
Protocol: APPIs were immobilized to a SPR nickel chip via the proteins His tag, and hK6 protein served as the analyte. The experiment was conducted at 25° C. APPI concentrations were 0.6125 nM, 1.25 nM, 2.5 nM, 5 nM, and 10 nM.
To this end, APPIs were mounted on a surface Plasmon resonance (SPR) nickel chip by their His tag, and hK6 molecules served as the analyte.

Regarding “APPIT11C/M17G/I18F/F34C: APPI variant, EVCSEQAECGPCRAGFSRWYFDVTEGKCAPFCYGGCGGNRNNFDTEEYCMAVCGSAI”, the inhibitory constant (Ki) in series [1] (Table 4, read-out: Ki) was found to be 149 nM. In [2] (Table 4), this substance returned a Kcat of 0.00521 s⁻¹ and a turnover time of 192.21 s. For the same substance, in series [2] (proteolytic stability relative to APPI-WT), the “Turnover time (fold)” value is given as “around 2 fold”.

Consider “bovine pancreatic trypsin inhibitor [BPTI]”, for which the “proteolytic stability toward mesotrypsin” value in series [3] was “the more stable of the two”.

For the substance “SEQ ID NO: 13: APPI variant, EVCSEQAETGPCRALFFRWYFDVTEGKCAPFVYGGCGGNRNNFDTEEYCMAVCGSAI”, the Ki in series [1] (Example 10, read-out: Ki (mesotrypsin activity)) was 5.38 nM. Moreover, the “binding to hK6 compared with SEQ ID NO: 8” value in [4] (50 nM hK6, yeast display) is on record as “higher binding”. Further, the “binding to hK6 in presence of small molecule” value in [4] (high concentrations of small molecule targeting active-site Ser of hK6) is recorded as “diminished”. The “proliferation (XTT)” value in [5], in series [6] and in series [7] was “did not inhibit proliferation” throughout. Moreover, the “invasive cells per field” value in series [8] (10 μM APPI (b288 prints 10M), 48 hours) stood at 1.46±0.48 cells/field. The invasion capacity reduced in series [8] (10 μM APPI (b288 prints 10M), 48 hours, vs vehicle) is 77%. Further, the transmembrane invasion result in [8] (compared with vehicle) was “significantly lower transmembrane invasion capacity; also recorded: inhibits cell invasion”. Also, the Kd in series [9] (25° C.) was 0.351 nM. The “improvement in binding to hK6” value in series [9] (compared to APPI WT) is recorded as 22.5 folds.

The values above are taken from patent publication US20180362616A1, “VARIANTS OF AMYLOID beta-PROTEIN PRECURSOR INHIBITOR DOMAIN” (THE NATIONAL INSTITUTE FOR BIOTECHNOLOGY IN THE NEGEV LTD., priority 2015, published 2018).
